Results from patent publication US20240174727A1, “LONG-ACTING NATRIURETIC PEPTIDES AND USES THEREOF” (Eli Lilly and Company, priority 2022, published 2024).
Numbered stars: 1 amine (or outer) side, 2 acyl side, 3 side chain; on linkers, the order of the positions; unused ones are H or OH. Bridge positions count the residues as written; N and C are the ends. Square brackets hold non-standard residues; d marks the D form. * marks the point of attachment. C20 diacid = O=C(O)CCCCCCCCCCCCCCCCCCC(=O)*; γGlu = O=C(O)[C@H](CCC(=O)[*:2])N[*:1]; 4Pal = N[C@@H](Cc1ccncc1)C(=O)O

Columns and labels:
Assay in all cases: cell-based or functional assay
[1] = biological target: T1, rat NPRA (rat, UniProt P18910 29-1057)
T1 sequence (looked up): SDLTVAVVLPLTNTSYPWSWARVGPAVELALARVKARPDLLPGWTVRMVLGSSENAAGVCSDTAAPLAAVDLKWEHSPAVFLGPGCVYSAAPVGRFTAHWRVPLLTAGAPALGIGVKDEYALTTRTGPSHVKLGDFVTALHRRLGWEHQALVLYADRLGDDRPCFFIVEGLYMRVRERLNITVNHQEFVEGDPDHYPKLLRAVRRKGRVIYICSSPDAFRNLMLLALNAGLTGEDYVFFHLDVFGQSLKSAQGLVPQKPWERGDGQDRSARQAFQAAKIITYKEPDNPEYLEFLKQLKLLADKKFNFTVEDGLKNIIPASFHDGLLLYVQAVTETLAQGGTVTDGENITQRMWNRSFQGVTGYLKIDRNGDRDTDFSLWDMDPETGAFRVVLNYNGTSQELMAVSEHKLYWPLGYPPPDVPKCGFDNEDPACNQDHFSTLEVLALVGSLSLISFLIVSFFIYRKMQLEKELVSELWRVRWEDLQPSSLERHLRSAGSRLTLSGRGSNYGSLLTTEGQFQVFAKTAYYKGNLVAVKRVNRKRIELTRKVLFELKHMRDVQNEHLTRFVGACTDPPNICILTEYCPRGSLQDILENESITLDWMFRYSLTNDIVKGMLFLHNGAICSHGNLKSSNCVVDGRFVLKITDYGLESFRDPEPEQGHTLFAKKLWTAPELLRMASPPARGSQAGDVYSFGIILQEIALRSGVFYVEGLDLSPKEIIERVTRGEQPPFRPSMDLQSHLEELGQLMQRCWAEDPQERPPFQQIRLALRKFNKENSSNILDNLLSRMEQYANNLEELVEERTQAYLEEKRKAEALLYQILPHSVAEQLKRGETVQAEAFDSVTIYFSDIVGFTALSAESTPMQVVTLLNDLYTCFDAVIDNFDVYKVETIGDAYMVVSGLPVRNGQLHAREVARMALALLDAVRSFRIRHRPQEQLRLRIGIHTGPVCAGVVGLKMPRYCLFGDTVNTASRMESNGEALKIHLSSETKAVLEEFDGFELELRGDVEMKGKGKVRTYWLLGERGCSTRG

[2] = biological target: T2, human NPRA (human, UniProt P16066 33-1061)
T2 sequence (looked up): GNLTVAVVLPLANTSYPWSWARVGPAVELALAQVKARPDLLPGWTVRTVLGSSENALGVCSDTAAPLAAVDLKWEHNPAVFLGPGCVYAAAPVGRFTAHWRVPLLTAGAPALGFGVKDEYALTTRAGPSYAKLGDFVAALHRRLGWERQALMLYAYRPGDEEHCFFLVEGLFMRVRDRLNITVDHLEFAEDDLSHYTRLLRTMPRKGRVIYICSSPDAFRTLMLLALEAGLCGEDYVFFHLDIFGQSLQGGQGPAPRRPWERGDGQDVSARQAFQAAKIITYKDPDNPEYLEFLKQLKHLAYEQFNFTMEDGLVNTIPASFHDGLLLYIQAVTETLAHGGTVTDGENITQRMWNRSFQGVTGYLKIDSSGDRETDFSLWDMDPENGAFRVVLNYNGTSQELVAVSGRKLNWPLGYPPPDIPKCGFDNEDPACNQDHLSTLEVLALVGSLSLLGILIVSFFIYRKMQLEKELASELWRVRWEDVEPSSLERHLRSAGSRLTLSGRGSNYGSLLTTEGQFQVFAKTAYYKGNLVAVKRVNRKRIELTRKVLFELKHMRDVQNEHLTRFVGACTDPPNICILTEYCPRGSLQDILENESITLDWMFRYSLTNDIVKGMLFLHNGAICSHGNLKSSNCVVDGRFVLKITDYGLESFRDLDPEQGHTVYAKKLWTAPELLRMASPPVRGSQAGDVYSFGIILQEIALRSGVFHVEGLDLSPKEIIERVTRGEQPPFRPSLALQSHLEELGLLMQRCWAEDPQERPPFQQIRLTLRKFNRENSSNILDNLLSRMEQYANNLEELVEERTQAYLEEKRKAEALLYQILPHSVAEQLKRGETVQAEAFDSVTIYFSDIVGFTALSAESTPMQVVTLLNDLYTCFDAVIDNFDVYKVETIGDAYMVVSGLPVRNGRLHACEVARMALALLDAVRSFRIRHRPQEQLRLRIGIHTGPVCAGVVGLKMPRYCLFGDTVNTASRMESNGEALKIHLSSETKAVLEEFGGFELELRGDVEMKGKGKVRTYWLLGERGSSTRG

[3] = biological target: T3, human NPRA (human, UniProt P16066 33-1061); remark: listed apart in the source
T3 sequence (looked up): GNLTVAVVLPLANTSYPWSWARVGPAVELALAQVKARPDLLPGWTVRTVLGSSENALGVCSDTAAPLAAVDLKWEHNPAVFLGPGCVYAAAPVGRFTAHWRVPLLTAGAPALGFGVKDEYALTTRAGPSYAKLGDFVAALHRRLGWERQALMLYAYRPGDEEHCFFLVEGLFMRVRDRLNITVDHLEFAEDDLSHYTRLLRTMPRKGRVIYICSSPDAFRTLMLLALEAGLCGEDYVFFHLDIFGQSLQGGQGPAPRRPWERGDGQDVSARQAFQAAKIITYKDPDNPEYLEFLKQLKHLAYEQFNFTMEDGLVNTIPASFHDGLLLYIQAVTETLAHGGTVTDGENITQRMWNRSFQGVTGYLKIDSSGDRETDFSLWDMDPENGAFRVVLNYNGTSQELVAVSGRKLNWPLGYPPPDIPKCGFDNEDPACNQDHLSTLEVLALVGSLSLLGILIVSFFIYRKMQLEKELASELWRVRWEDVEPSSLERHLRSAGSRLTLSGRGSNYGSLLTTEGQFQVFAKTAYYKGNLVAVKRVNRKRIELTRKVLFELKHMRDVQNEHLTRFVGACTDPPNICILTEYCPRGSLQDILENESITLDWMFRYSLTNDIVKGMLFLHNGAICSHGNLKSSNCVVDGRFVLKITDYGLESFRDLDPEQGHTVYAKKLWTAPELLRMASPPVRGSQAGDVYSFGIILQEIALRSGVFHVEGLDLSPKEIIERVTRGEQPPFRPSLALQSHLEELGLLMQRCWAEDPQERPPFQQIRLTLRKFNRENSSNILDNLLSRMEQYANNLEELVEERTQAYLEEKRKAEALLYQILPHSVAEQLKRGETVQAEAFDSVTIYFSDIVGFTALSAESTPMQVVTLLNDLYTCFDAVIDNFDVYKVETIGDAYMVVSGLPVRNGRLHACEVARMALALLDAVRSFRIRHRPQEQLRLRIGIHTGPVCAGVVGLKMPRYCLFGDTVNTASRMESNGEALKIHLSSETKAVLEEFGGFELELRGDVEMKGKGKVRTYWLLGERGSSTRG

[4] = biological target: T4, rat NPRA (rat, UniProt P18910 29-1057); remark: listed apart in the source
T4 sequence (looked up): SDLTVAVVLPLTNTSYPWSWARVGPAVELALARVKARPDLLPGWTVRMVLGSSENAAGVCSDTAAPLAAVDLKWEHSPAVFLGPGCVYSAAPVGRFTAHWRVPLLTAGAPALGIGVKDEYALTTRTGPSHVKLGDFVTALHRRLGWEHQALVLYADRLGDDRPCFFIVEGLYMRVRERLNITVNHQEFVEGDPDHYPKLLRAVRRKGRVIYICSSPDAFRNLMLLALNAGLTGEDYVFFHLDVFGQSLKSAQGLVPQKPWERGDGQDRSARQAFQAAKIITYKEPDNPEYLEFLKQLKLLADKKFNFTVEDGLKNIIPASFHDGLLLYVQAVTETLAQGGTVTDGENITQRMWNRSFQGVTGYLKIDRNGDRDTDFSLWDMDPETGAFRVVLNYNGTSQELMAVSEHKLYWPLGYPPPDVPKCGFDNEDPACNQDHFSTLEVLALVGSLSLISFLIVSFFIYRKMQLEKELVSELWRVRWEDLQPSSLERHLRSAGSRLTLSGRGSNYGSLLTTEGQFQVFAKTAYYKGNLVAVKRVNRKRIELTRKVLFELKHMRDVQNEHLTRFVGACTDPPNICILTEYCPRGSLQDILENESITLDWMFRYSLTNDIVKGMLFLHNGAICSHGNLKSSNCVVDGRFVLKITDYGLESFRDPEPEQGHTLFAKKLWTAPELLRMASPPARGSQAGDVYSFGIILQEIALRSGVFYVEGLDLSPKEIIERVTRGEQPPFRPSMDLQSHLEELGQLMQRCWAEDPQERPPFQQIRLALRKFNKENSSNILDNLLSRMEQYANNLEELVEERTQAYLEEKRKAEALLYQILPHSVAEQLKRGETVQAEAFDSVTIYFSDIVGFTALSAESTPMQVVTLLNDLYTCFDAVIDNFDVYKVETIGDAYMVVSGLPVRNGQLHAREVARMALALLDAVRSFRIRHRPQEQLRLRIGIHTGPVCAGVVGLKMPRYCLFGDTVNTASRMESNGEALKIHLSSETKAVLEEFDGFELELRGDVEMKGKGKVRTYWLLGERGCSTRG

B1: Example 20 (peptide)
peptide: {C20 diacid}-[γGlu]EKEKEKGS[4Pal]RRSSCFGGRIDRIGAQSGLGCPSFR[4Pal]-NH2
modifications: disulfide 15-31
SMILES: CC[C@H](C)[C@@H]1NC(=O)[C@H](CCCNC(=N)N)NC(=O)[C@H](CC(=O)O)NC(=O)[C@H]([C@@H](C)CC)NC(=O)[C@H](CCCNC(=N)N)NC(=O)CNC(=O)CNC(=O)[C@H](Cc2ccccc2)NC(=O)[C@@H](NC(=O)[C@H](CO)NC(=O)[C@H](CO)NC(=O)[C@H](CCCNC(=N)N)NC(=O)[C@H](CCCNC(=N)N)NC(=O)[C@H](Cc2ccncc2)NC(=O)[C@H](CO)NC(=O)CNC(=O)[C@H](CCCCN)NC(=O)[C@H](CCC(=O)O)NC(=O)[C@H](CCCCN)NC(=O)[C@H](CCC(=O)O)NC(=O)[C@H](CCCCN)NC(=O)[C@H](CCC(=O)O)NC(=O)CC[C@H](NC(=O)CCCCCCCCCCCCCCCCCCC(=O)O)C(=O)O)CSSC[C@@H](C(=O)N2CCC[C@H]2C(=O)N[C@@H](CO)C(=O)N[C@@H](Cc2ccccc2)C(=O)N[C@@H](CCCNC(=N)N)C(=O)N[C@@H](Cc2ccncc2)C(N)=O)NC(=O)CNC(=O)[C@H](CC(C)C)NC(=O)CNC(=O)[C@H](CO)NC(=O)[C@H](CCC(N)=O)NC(=O)[C@H](C)NC(=O)CNC1=O
[1]
  cGMP Assay (EC50, pM) w/BSA: 104000 pM
  cGMP Assay (EC50, pM) w/Casein: 1390 pM
[2]
  cGMP Assay (EC50, pM) w/BSA: 129000 pM
  cGMP Assay (EC50, pM) w/Casein: 2900 pM

B2: HOOC-(CH2)18-CO-(γGlu)-EKEKEKG-(AEEA)8-S-4Pal-RRSS[CFGKRIDRIGHYSGLGC]PSFRHGSPSSGAPPPS-NH2 (peptide)
peptide: SXRRSSCFGKRIDRIGHYSGLGCPSFRHGSPSSGAPPPS
modifications: N-terminus acylated with HOOC-(CH2)18-CO-(γGlu)-; (AEEA)8 after EKEKEKG; 4Pal; thioacetal linkage between the two bracketed Cys; C-terminal amide
[3]
  cGMP Assay (EC50, pM) w/BSA, hNPRA: 3770 pM
  cGMP Assay (EC50, pM) w/Casein, hNPRA: 646 pM
[4]
  cGMP Assay (EC50, pM) w/BSA, rNPRA: 149000 pM
  cGMP Assay (EC50, pM) w/Casein, rNPRA: 3780 pM

B3: HOOC-(CH2)18-CO-(γGlu)-EKEKEKG-(AEEA)6-S-4Pal-βAla-RSS[CFGGRIDRIGHYSGLGC]PSFRHGSPSSGAPPPS-NH2 (peptide)
peptide: SXXRSSCFGGRIDRIGHYSGLGCPSFRHGSPSSGAPPPS
modifications: N-terminus acylated with HOOC-(CH2)18-CO-(γGlu)-; (AEEA)6 after EKEKEKG; 4Pal; βAla; thioacetal linkage between the two bracketed Cys; C-terminal amide
[3]
  cGMP Assay (EC50, pM) w/Casein, hNPRA: 1530 pM

B4: HOOC-(CH2)18-CO-(γGlu)-EKEKEKG-PEG24-S-4Pal-RRSS[CFGKRIDRIGHYSGLGC]PSFRHGSPSSGAPPPS-NH2 (peptide)
peptide: SXRRSSCFGKRIDRIGHYSGLGCPSFRHGSPSSGAPPPS
modifications: N-terminus acylated with HOOC-(CH2)18-CO-(γGlu)-; PEG24 after EKEKEKG; 4Pal; thioacetal linkage between the two bracketed Cys; C-terminal amide
[3]
  cGMP Assay (EC50, pM) w/BSA, hNPRA: 2830 pM
  cGMP Assay (EC50, pM) w/Casein, hNPRA: 726 pM
[4]
  cGMP Assay (EC50, pM) w/BSA, rNPRA: 100000 pM
  cGMP Assay (EC50, pM) w/Casein, rNPRA: 5650 pM
